“Also recorded” adds a separate entry of the source.
How the values were obtained:
[1] = molecular target: T1, taxane-2α-O-benzoyl transferase (TAX2) (Taxus cuspidata, UniProt Q9FPW3); assay: recombinant TAX2 benzoyl transferase screening assay (radio-HPLC); format: biochemical; conditions: UV and radioactivity profiles
T1 construct: Full-length insert fragments of the relevant plasmids are excised and subcloned in-frame into the expression vector pCWori+; made in house; host or cells: E. coli JM109 (pCWori+)
T1 sequence (Q9FPW3 1-440): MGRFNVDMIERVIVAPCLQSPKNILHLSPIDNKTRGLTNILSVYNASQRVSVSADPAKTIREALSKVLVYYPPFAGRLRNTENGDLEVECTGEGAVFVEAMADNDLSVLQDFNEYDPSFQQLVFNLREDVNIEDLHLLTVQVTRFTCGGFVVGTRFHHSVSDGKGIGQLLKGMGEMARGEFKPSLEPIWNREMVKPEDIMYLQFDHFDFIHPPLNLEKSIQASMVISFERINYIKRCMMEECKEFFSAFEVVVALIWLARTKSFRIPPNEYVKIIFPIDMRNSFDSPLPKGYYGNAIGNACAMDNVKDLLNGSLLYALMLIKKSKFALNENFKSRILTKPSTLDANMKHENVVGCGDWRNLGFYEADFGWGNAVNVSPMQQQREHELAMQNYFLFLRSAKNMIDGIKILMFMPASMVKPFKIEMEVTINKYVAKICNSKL
Protocol: TAX2, TAX5, TAX7, TAX9, TAX10, TAX 12, and TAX13 ([…]) were expressed in bacteria using the following protocol. For a typical preparation of the recombinant enzyme, each of the E. coli cultures transformed with a pCWori+ vector harboring a putative transacylase gene was grown overnight at 37° C. in 5 mL Luria-Bertani medium supplemented with 50 μg ampicillin/mL. 1 mL of these cultures was individually added to separate aliquots of 100 mL Terrific Broth culture medium (6 g bacto-tryptone (Difco Laboratories, Spark, Md.), 12 g yeast extract (EM Science, Cherryhill, N.J.), and 2 mL glycerol in 500 mL water) and grown at 37° C. After 3 hours, the medium was supplemented with 1 mM isopropyl-β-D-thiogalactopyranoside for induction and 50 μg ampicillin/mL, and the cultures were grown at 25° C. […]
A 1-mL aliquot of each soluble enzyme preparation was incubated with 2-debenzoyl-7,13-diacetylbaccatin III (500 μM) and [7-^14C]benzoyl coenzyme A (500 μM, 9.3 μCi) for 1.5 hours at 31° C. […] The resulting crude products of the assay were dissolved in acetonitrile (50 μL) and analyzed by radio-HPLC using a Perkin Elmer HPLC ISS 200 coupled to a PACKARD RADIOMATIC™ radioactivity detector series A100 (Canberra, Ind., Meriden, Conn.) (see FIGS. 12A and 12B for a representative chromatogram). […]

TAX2 gene product = molecular target: T2, TAX2 gene product (Taxus cuspidata, UniProt Q9FPW3); assay: recombinant TAX2 expressed in E. coli JM109, acetyl transacylase assay; format: biochemical; conditions: [3H]taxadienol and acetyl CoA co-substrates
T2 construct: Full-length insert fragments of the relevant plasmids are excised and subcloned in-frame into the expression vector pCWori+; made in house; host or cells: E. coli JM109 (pCWori+)
T2 sequence (Q9FPW3 1-440): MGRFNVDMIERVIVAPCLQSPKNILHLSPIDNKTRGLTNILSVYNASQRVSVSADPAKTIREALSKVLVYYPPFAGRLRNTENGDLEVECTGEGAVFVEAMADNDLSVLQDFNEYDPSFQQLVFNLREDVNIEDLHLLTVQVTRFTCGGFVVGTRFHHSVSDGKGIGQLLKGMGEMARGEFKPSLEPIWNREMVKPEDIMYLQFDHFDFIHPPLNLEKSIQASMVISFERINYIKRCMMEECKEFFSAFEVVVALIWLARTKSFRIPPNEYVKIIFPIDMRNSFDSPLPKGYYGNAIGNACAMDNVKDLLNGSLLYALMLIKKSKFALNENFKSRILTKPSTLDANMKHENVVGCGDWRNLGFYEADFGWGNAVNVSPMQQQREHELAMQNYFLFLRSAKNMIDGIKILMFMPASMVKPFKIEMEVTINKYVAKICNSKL
Protocol: To determine the identity of the putative taxadienol acetyl transacylase, TAX1 (SEQ ID NO: 28), TAX2 (SEQ ID NO: 26), and TAX6 (SEQ ID NO: 45) were subcloned in-frame into the expression vector pCWori+ (Barnes, Methods Enzymol. 272:3–14, 1996) and expressed in E. coli JM109 cells. The transformed bacteria were cultured and induced with isopropyl β-D-thiogalactoside (IPTG), and cell-free extracts were prepared and evaluated for taxadienol acetyl transacylase activity using the previously developed assay procedures (Walker et al., Arch. Biochem. Biophys. 364:273–279, 1999). Clone TAX1 (corresponding directly to Probe 1) expressed high levels of taxadienol acetyl transacylase activity (20% conversion of substrate to product), as determined by radiochemical analysis; the product of this recombinant enzyme was confirmed as taxadienyl-5α-yl acetate by gas chromatography-mass spectrometry (GC-MS) (FIGS. 5A–5G). […] Neither of the recombinant proteins expressed from TAX1 (SEQ ID NO: 28) or TAX2 (SEQ ID NO: 26) was capable of acetylating the advanced paclitaxel precursor 10-deacetyl baccatin III to baccatin III. […]

B1: TAX2: full-length clone, SEQ ID NO: 25/26; taxane-2α-O-benzoyl transferase (protein, listed as Taxus cuspidata)
chain: MGRFNVDMIERVIVAPCLQSPKNILHLSPIDNKTRGLTNILSVYNASQRVSVSADPAKTIREALSKVLVYYPPFAGRLRNTENGDLEVECTGEGAVFVEAMADNDLSVLQDFNEYDPSFQQLVFNLREDVNIEDLHLLTVQVTRFTCGGFVVGTRFHHSVSDGKGIGQLLKGMGEMARGEFKPSLEPIWNREMVKPEDIMYLQFDHFDFIHPPLNLEKSIQASMVISFERINYIKRCMMEECKEFFSAFEVVVALIWLARTKSFRIPPNEYVKIIFPIDMRNSFDSPLPKGYYGNAIGNACAMDNVKDLLNGSLLYALMLIKKSKFALNENFKSRILTKPSTLDANMKHENVVGCGDWRNLGFYEADFGWGNAVNVSPMQQQREHELAMQNYFLFLRSAKNMIDGIKILMFMPASMVKPFKIEMEVTINKYVAKICNSKL
product from 2-debenzoyl-7,13-diacetylbaccatin III and [7-14C]benzoyl CoA [1]: coincide exactly with the retention time of authentic 7,13-diacetylbaccatin III | taxadienol acetyl transacylase activity (TAX2 gene product): did not express taxadienol acetyl transacylase activity; also recorded: inactive

Reference: patent publication US7153676B1, “Transacylases of the paclitaxel biosynthetic pathway” (priority 1999, dated 2006)
